Reference: publication PMC4459106

Substrate: CC(C)C[C@H](NC(=O)[C@H](CCCCN)NC(=O)[C@H](C)NC(=O)[C@@H]1CCCN1C(=O)[C@H](CO)NC(=O)[C@H](CCCNC(=N)N)NC(=O)[C@@H]1CCCN1)C(=O)N[C@@H](CO)C(=O)N[C@@H](Cc1ccccc1)C(=O)N[C@@H](CCC(N)=O)C(=O)N[C@@H](Cc1ccccc1)C(=O)N1CCC[C@H]1C(=O)N[C@@H](CO)C(=O)O
Assay: purified protein, by the assay type
Type: biochemical, rat (rat ERK2 numbering used throughout)
Conditions: other: phosphorylation by 2 nM ppERK2, 1.6–400 μM Elk387-399, 500 μM γ-32P ATP, 25 mM HEPES pH 7.5, 10 mM MgCl2, 30 °C, Michaelis-Menten fit
Procedure: Kinase assays to determine the Michelis-Menten parameters for the phosphorylation of Elk387-399by ppERK2 were performed in 100 μL volumes at 30 °C in a buffer containing 25 mM HEPES pH 7.5, 50 mM KCl, 0.1 mM EDTA, 0.1 mM EGTA, 2 mM DTT, 10 mM MgCl2, and 40 μg/mL BSA. […] The reaction mixture was incubated for 10 minutes at 30 °C before initiation with 500 μM γ-^32P ATP (specific activity of 1 × 10^15 cpm/mol). Aliquots (10 μL) were spotted onto P81 filter papers at fixed times. The filter papers were washed three times for 15 minutes with 50 mM phosphoric acid to remove excess ATP and washed once with acetone for drying. The amount of phosphate incorporated into Elk387-399was determined by the associated counts per minute on a scintillation counter (Packard 1500) at a σ value of 2.

B1: ppERK2 (Rattus norvegicus) (protein)
chain: MAAAAAAGPEMVRGQVFDVGPRYTNLSYIGEGAYGMVCSAYDNLNKVRVAIKKISPFEHQTYCQRTLREIKILLRFRHENIIGINDIIRAPTIEQMKDVYIVQDLMETDLYKLLKTQHLSNDHICYFLYQILRGLKYIHSANVLHRDLKPSNLLLNTTCDLKICDFGLARVADPDHDHTGFLTEYVATRWYRAPEIMLNSKGYTKSIDIWSVGCILAEMLSNRPIFPGKHYLDQLNHILGILGSPSQEDLNCIINLKARNYLLSLPHKNKVPWNRLFPNADSKALDLLDKMLTFNPHKRIEVEQALAHPYLEQYYDPSDEPIAEAPFKFDMELDDLPKEKLKELIFEETARFQPGYRS
notes: made in house
Km: 13.4 ± 1.1 µM | kcat: 0.56 ± 0.1 s⁻¹
